Source: patent publication US9102758B2, “Insulin-oligomer conjugates, formulations and uses thereof” (priority 2004, dated 2015)
Where two headings read alike, the source gives them in different places.

Legend:
chymotrypsin enzyme [1] = test: In vitro enzyme resistance (chymotrypsin) of HIM2 and its complexes; details: chymotrypsin digest, 37° C., pH about 7.4
Experimental: Lyophilized chymotrypsin enzyme was resuspended in 1 mM HCl to a concentration of 7.53 U/mL. A 1.53 mL aliquot of each sample was added to sample tubes and 0.850 mL into control tubes. Samples were tested in duplicate along with four control tubes per sample. […] Then 17 μL of chymotrypsin enzyme was added to each sample tube. Five μL of 1 mM HCl was added to each control tube. Immediately following the additions, 200 μL was removed from the sample and the control tubes and placed into 50 μL of 1% TFA previously aliquoted out into centrifuge tubes. This sample serves as T=0.
(§1) The control procedure was repeated at the following intervals: 0, 8, 15, 30 minutes. For T-type and R-type samples, the procedure was repeated at the following intervals: 0, 5, 8, 12, 30, 40 and 60 minutes. The control procedure for the Zn complexes was repeated at the following intervals: 0, 12, 40 and 60 minutes. Samples were stored at −20° C. until analysis can occur via HPLC. HPLC was performed to determine percent degradation relative to the respective T=0 minute for each digest. The natural log of the percent remaining was plotted versus time and a linear regression run for each digest. The half life was calculated using the equation: t=−0.693/slope.

male CF-1 mice = test: Extended Mouse Blood Glucose Assay (MBGA); assay type: in vivo; details: subcutaneous
Experimental: Six paired-dose groups of 5 male CF-1 mice (Charles River Laboratories; 25-30 g) received subcutaneous injections of either the insulin compound conjugate (test article) or recombinant human insulin. The test article was reconstituted with phosphate buffer (0.01 M, a pH of about 7.4) containing 0.1% w/w bovine serum albumin and dosed at 100, 66.6, 43.3, 30, 20, and 13.3 μg/kg. Insulin compound was reconstituted with phosphate buffer (0.01 M, a pH of about 7.4) containing 0.1% w/w bovine serum albumin and dosed at 50, 33.3, 21.7, 15, 10, and 6.7 μg/kg. […] Blood samples were collected in heparin tubes for glucose assay. If glucose assay was delayed, the tubes were stored in ice water and re-warmed to room temperature before assay.
Plasma glucose was measured with a glucometer (e.g., One Touch® Basic; Lifescan), which was calibrated at the beginning of each day of use according to the manufacturer's instructions. The potency of the insulin compound conjugate was then calculated relative to the standard curve that was generated for the recombinant human insulin response. Calculations were based upon the assumption that recombinant human insulin has a potency of 27.4 IU/mg.

chymotrypsin enzyme [2] = system: chymotrypsin enzyme
Experimental: Lyophilized chymotrypsin enzyme was resuspended in 1 mM HCl to a concentration of ˜7.53 U/mL. A 1.53 mL aliquot of each sample was added to sample tubes and 0.850 mL into control tubes. Samples were tested in duplicate along with four control tubes per sample. […] Then 17 μL of chymotrypsin enzyme was added to each sample tube. Five μL of 1 mM HCl was added to each control tube. Immediately following the additions, 200 μL was removed from the sample and the control tubes and placed into 50 μL of 1% TFA previously aliquoted out into centrifuge tubes. This sample serves as T=0.
as §1

[3] = assay type: physicochemical
Experimental: Two hundred microliters of 0.1M Phosphate Buffer Saline (PBS, filtered, pH=7.4) was added to a 1 mL conical reaction vial. To this vial, a small amount of sample was added slowly until saturation is observed. Periodically, the solution was vortexed. […] After centrifugation, 10 μL of the sample was removed from the supernatant and diluted in 490 μL buffer (0.1 M PBS). This diluted sample was analyzed via HPLC to determine its' concentration.

Substance: HIM2 (R-type zinc complex): R-type zinc complex of HIM2, 1.1% w/w zinc
- T half (chymotrypsin enzyme [1]; 0.3 mg/mL protein): 19 to 21 min

Substance: HIM2 (R-type zinc/protamine complex): R-type zinc complex of HIM2 with protamine
- glucose lowering effect at 30 and 90 minutes post dose (male CF-1 mice): greater glucose reduction at 30 minutes than 90 minutes
- T half (chymotrypsin enzyme [1]; 0.6 mg/ml protein): 95 to 120 min

Substance: HIM2 (T-type zinc complex): T-type zinc complex of HIM2, 0.55% w/w zinc
- T half (chymotrypsin enzyme [1]; 0.3 mg/mL protein): 12 to 15 min

Substance: HIM2: human insulin monoconjugate with a modifying moiety coupled at B29
- biopotency (MBGA) on complexation with Zn++ (male CF-1 mice; plasma glucose 30 minutes post dose, relative to recombinant human insulin): not significantly reduced

Substance: IN105 (T-type zinc complex): T-type Zn complex of IN105, 1.88% w/w zinc; same zinc content as reaction 9.5.3
- T half (chymotrypsin enzyme [2]): 54.8 min

Substance: Reaction 9.3.3: R-type Zn Complex of HIM2 with Protamine at Acidic pH
- Solubility ([3]; pH 7.4): 36.78 mg/mL

Substance: Reaction 9.5.1: T-Type Zn Complex of IN105 Monoconjugate (10 g/L Concentration)
- Solubility (mg/mL) in a pH of about 7.4, 0.1M phosphate buffer [3]: 80-85 mg/mL

Substance: Reaction 9.5.2: T-Type Zn Complex of IN105 Monoconjugate (1 g Scale)
- Solubility (mg/mL) in a pH of about 7.4, 0.1M phosphate buffer [3]: 10-20 mg/mL

Substance: Reaction 9.6.2: R-Type Zn Complex of IN105 Conjugate at 5 g Scale
- Solubility [3]: 10 to 25 mg/mL
